# Source: patent publication US20050153923A1, “Targeted drug delivery using EphA2 or EphA4 binding moieties” (priority 2003, published 2005)
# “Also recorded” adds a separate entry of the source.
# Columns and labels:
# EphA2 = EphA2 (Homo sapiens, UniProt P29317); experiment: EphA2 expression in MCF-7^EphA2 cells after EA2 treatment (Western blot); assay type: cell-based
# Protocol: MCF-7^EPhA2 cells were incubated in the presence of 3 μg/ml of EA2 for the time indicated prior to sample extraction and Western blot analyses with an EphA2-specific antibody (D7).
# Estrogen-sensitive breast cancer cells, MCF-7 cells, were transfected with and stably overexpressed human EphA2 (MCF-7^EphA2) (pNeoMSV-EphA2 provided by Dr. T. Hunter, Scripps Institute). Western blot analyses confirmed the ectopic overexpression of EphA2 in transfected cells relative to matched controls (data not shown).
# (§1) Growth MCF-7^EphA2 cells which had decreased EphA2 expression levels was assayed in soft agar.
# EphA2-Fc = target: T1, EphA2-Fc (Homo sapiens, UniProt P29317); experiment: Competitive ELISA: inhibition of labeled EA2 binding to EphA2-Fc; conditions: unlabeled antibody, increasing concentrations; FIG. 1
# T1 construct: consisted of the extracellular domain of human EphA2 linked to human immunoglobulin
# T1 sequence (P29317 24-537 limits assumed): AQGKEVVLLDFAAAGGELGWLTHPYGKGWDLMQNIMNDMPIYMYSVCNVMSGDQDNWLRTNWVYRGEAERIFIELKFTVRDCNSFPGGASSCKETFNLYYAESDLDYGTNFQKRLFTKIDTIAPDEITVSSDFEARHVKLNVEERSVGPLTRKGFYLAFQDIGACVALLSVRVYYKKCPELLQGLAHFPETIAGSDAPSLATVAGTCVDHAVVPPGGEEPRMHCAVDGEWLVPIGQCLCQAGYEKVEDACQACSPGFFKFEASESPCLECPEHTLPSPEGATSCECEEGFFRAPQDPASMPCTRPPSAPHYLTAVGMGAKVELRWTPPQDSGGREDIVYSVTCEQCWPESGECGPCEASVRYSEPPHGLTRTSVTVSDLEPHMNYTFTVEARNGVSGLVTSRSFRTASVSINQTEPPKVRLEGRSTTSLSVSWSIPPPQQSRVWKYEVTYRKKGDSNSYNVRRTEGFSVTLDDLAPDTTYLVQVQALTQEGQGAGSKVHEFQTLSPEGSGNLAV
# Protocol: The ability of labeled EA2 monoclonal antibody to bind EphA2-Fc was assayed by competitive ELISA in presence of either unlabeled monoclonal antibodies EA2 or Eph099B-208.261. Ratios of unlabeled to labeled antibody used in the assay are indicated on the x-axis.
# Supernatants from bulk culture hybridomas were screened for immunoreactivity against EphA2 (Table 9, column 4) using standard molecular biological techniques (e.g., ELISA immunoassay). Supernatants were further screened for the ability to inhibit an EphA2 monoclonal antibody (EA2; ATCC deposit no. PTA-4380; see co-pending U.S. patent application Ser. No. 10/436,783, entitled “EphA2 Agonistic Monoclonal Antibodies and Methods of Use Thereof” filed May 12, 2003) from binding to EphA2. […] Additionally, many of the other antibodies could inhibit EA2 binding to EphA2 as well (Table 9, column 3).
# MCF-7^EphA2 cells = experiment: Soft agar colonization of MCF-7^EphA2 cells; assay type: cell-based; conditions: TAM 1 μM, EA2 10 μg/ml
# Protocol: (B) MCF-7 (circles) or MCF-7^EphA2 cells (squares) were implanted into the mammary fatpad (n=15 mice per group) in the presence of supplemental estrogen.
# MCF-7^EPhA2 cells were incubated in the presence of 3 μg/ml of EA2 for the time indicated prior to sample extraction and Western blot analyses with an EphA2-specific antibody (D7). (B) The membrane was stripped and re-probed with a β-catenin-specific antibody as a loading control.
# Growth assays were conducted as follows. MCF-7^neo (control cells) or MCF7^EphA2 cells were seeded in 96-well plates. […] Colony formation in soft agar was performed as previously described (Zelinski et al., 2001, Cancer Res. 61: 2301-6) and scored microscopically, defining clusters of at least three cells as a positive. The data represent the average of ten separate high-power microscopic fields from each sample and representative of at least three separate experiments. Error bars represent the standard error of the mean of at least three different experiments as determined using Microsoft Excel software.
# as §1
# [1] = target: T2, EphA2-Ephrin A1-Fc-EA2 complex (Homo sapiens, UniProt P29317); experiment: Displacement of biotinylated EA2 from EphA2-Ephrin A1-Fc complex by unlabeled competitor; assay type: binding; conditions: biotinylated EA2 10 μg/ml; FIG. 18B
# T2 construct: consisting of the extracellular domain of EphA2 linked to human IgG1 constant region (EphA2-Fc)
# T2 sequence (P29317 24-537 limits assumed): as above
# T2 sequence (P20827 19-182 partner limits assumed): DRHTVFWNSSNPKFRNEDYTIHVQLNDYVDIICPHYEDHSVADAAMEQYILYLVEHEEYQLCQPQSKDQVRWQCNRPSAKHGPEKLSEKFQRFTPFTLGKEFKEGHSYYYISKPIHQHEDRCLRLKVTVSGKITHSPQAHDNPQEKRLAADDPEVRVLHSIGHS
# Protocol: (A) EphA2-Fc was incubated with and bound to immobilized Ephrin A1-Fc. Labeled Ephrin A1-Fc (black), EA2 (white) or Eph099B-233.152 (grey) was incubated with the EphA2-Ephrin A1-Fc complex and amount of binding was measured. (B) EphA2-Fc was incubated with and bound to immobilized Ephrin A1-Fc. Labeled EA2 was then incubated with the EphA2-Ephrin A1 complex. Unlabeled competitor was incubated with EphA2-Ephrin A1-EA2 complex in the indicated amount. Competitors were Ephrin A1-Fc (black), EA2 (white) or Eph099B-233.152 (grey).
# The EphA2-Ephrin A1-Fc complex was prepared as described above. Biotinylated EA2 (10 μg/ml) was then incubated with the complex for 30 min. Unlabeled competitor was incubated with EphA2-Ephrin A1-Fc-EA2 complex in the indicated amount. Unlabeled EA2 could displace the labeled EA2 at concentrations of 100 ng/ml or greater.
# [2] = tested on: MDA-MB-231 breast cancer cells; experiment: Tumor growth, MDA-MB-231 cells implanted orthotopically into athymic mice; assay type: in vivo; conditions: 6 mg/kg i.p. twice a week for 3 weeks; FIG. 7A
# Protocol: Total tumor volume was determined after sacrifice.
# Chain of EphA2 (P29317 24-976): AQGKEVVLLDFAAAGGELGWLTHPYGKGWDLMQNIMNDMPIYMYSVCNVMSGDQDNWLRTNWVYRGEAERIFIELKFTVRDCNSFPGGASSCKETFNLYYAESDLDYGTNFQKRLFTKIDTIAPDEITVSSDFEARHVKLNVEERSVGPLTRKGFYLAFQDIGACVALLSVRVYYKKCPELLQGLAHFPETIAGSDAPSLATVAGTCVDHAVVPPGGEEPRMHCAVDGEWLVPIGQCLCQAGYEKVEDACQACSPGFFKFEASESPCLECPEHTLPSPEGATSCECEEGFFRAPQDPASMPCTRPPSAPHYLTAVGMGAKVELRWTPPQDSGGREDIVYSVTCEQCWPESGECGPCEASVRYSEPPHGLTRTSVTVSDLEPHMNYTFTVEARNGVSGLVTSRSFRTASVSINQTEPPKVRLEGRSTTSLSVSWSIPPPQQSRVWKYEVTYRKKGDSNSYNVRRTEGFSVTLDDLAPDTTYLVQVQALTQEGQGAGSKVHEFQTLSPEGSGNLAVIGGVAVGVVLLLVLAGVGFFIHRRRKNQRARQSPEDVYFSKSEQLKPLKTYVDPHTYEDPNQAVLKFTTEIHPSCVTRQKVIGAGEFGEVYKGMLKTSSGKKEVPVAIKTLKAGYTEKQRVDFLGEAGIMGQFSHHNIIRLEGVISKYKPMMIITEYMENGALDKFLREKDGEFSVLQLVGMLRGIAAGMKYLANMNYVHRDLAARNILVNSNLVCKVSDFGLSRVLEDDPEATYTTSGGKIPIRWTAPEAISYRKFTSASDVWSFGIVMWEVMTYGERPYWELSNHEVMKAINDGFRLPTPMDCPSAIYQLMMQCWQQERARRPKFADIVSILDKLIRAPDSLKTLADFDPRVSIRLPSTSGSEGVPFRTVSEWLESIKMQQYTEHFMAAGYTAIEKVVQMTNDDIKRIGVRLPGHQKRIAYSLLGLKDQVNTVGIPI
molecule,measurement,setting,value
"EA2: EphA2 agonistic monoclonal antibody; hybridoma strain EA2.31, ATCC PTA-4380 (antibody, V domains shown) VH: DVKLVESGGGLVKPGGSLKLSCAASGFTFSSYTMSWVRQTPEKRLEWVATISSGGTYTYYPDSVKGRFTISRDNAKNTLYLQMSSLKSEDTAMYYCTREAIFTYWGQGTLVTVSA VL: DIKMTQSPSSMYASLGERVTITCKASQDINNYLSWFQQKPGKSPKTLIYRANRLVDGVPSRFSGSGSGQDYSLTISSLEYEDMGIYYCLKYDEFPYTFGGGTKLEIK",Time EphA2 remained undetectable after EA2 treatment,EphA2; 3 μg/ml EA2,≥ 24 h
same,EphA2 activation and expression level after EA2 treatment,"EphA2; 3 μg/ml EA2, FIG. 13A",induced EphA2 activation and subsequent degradation; also recorded: Decreased levels of EphA2 expression were observed within two hours
same,Competition with labeled EA2 for binding to EphA2-Fc,EphA2-Fc,could decrease the amount of labeled EA2 binding to EphA2-Fc
same,"Soft agar colonization response / tamoxifen sensitivity, MCF-7^EphA2 cells","MCF-7^EphA2 cells; 1 μM 17β-estradiol, FIGS. 11A, 13C (11A also MCF-7)",restored a phenotype that was comparable to control MCF-7 cells; also recorded: decreases malignant growth; also recorded: increased the sensitivity of MCF-7^EphA2 cells to tamoxifen
same,"Inhibition / decrease of soft agar colonization, MCF-7^EphA2 cells",MCF-7^EphA2 cells; 14 days,19%
same,Concentration of unlabeled competitor displacing labeled EA2,[1],≥ 100 ng/mL
same,"Tumor growth, MDA-MB-231 implanted orthotopically",[2],inhibited
